Results as given in patent US20210188969A1, “ANTIBODIES THAT BIND INTERLEUKIN-2 AND USES THEREOF” (published 2021).

Assays:
[1] = molecular target: mouse IL-2 Rβγ on mouse primary NK cells (mouse) (UniProt P16297)
[2] = molecular target: recombinant human IL-2 (human) (UniProt P60568)
[3] = molecular target: recombinant human IL-2 (human) (UniProt P60568); remark: listed apart in the source
[4] = molecular target: recombinant human IL-2 (human) (UniProt P60568); remark: listed apart in the source
[5] = molecular target: recombinant human IL-2 (human) (UniProt P60568); remark: listed apart in the source
[6] = molecular target: recombinant human IL-2 (human) (UniProt P60568); remark: listed apart in the source
[7] = molecular target: recombinant human IL-2 (human) (UniProt P60568); remark: listed apart in the source
[8] = molecular target: recombinant human IL-2 (human) (UniProt P60568); remark: listed apart in the source
[9] = molecular target: recombinant human IL-2 (human) (UniProt P60568); remark: listed apart in the source
rat IL-2 = molecular target: T1, rat IL-2 (rat, UniProt P17108); assay: SPR (Biacore 4000), antibody captured on anti-human IgG Fc, IL-2 30 nM to 1 nM; affinity estimate
T1 sequence: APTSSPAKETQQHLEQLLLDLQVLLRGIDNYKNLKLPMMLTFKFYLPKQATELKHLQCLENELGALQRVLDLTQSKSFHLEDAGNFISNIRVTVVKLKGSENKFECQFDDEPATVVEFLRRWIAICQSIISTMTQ
Protocol: Antibody affinities were measured by SPR using the Biacore 4000 with a standard capture methodology. Briefly, anti-human IgG (Fc specific) from an anti-human antibody capture kit (Biacore) was immobilized onto spots 1, 2, 4, and 5 of all four flow cells of a CM-5 sensor chip by amine coupling according to the manufacturer's instructions. Running buffer was HBS-EP+ with 1% BSA. […] Data were analyzed using the Biacore 4000 Evaluation software.
These sequences were imported into vector NTI® (Lifetech) and aligned using the alignx tool.

**Q.** For “IL-2/MAB602 complex (from UniProt P60568)”, which EC50 of IL-2-induced phosphorylation of STAT5a,b, mouse primary NK cells, IL-2 pre-complexed with 100 nM antibody [1] is on record?
**A.** Its EC50 of IL-2-induced phosphorylation of STAT5a,b, mouse primary NK cells, IL-2 pre-complexed with 100 nM antibody is 0.361 nM.

**Q.** For isotype control (anti-KLH) (antibody), which EC50 of IL-2-induced phosphorylation of STAT5a,b, mouse primary NK cells, with isotype control [2] is on record?
**A.** Its EC50 of IL-2-induced phosphorylation of STAT5a,b, mouse primary NK cells, with isotype control is 0.116 nM.

**Q.** And the EC50 of IL-2-induced phosphorylation of STAT5a,b, NK-92 cells, with isotype control [3]?
**A.** Its EC50 of IL-2-induced phosphorylation of STAT5a,b, NK-92 cells, with isotype control is 0.0009 nM.

**Q.** How did the fold right-shift in EC50 of IL-2-induced CD69 on Tregs, IL-2 pre-complexed with 200 nM antibody [4] turn out when MAB602 (antibody) was run?
**A.** Its fold right-shift in EC50 of IL-2-induced CD69 on Tregs, IL-2 pre-complexed with 200 nM antibody is 5 to 10 fold.

**Q.** What about the fold EC50 shift of IL-2-induced pSTAT5a,b, Human Primary NK cells (huRβγ) [5] of the same molecule?
**A.** The fold EC50 shift of IL-2-induced pSTAT5a,b, Human Primary NK cells (huRβγ) was 10 fold.

**Q.** What about the fold EC50 shift of IL-2-induced pSTAT5a,b, NK92 (huRαβγ) [5] of the same molecule?
**A.** Its fold EC50 shift of IL-2-induced pSTAT5a,b, NK92 (huRαβγ) is 959 fold.

**Q.** What about the fold right-shift in EC50 of IL-2-induced CD69 on CD56bright NK cells, IL-2 pre-complexed with 200 nM antibody [6] of the same molecule?
**A.** Its fold right-shift in EC50 of IL-2-induced CD69 on CD56bright NK cells, IL-2 pre-complexed with 200 nM antibody is 5 to 10 fold.

**Q.** What about the fold EC50 shift of IL-2-induced proliferation, CTLL-2 (muRαβγ) [7] of the same molecule?
**A.** The fold EC50 shift of IL-2-induced proliferation, CTLL-2 (muRαβγ) was 18 fold.

**Q.** What about the fold EC50 shift of IL-2-induced pSTAT5a,b, CTLL-2 (muRαβγ) [8] of the same molecule?
**A.** The fold EC50 shift of IL-2-induced pSTAT5a,b, CTLL-2 (muRαβγ) was 227 fold.

**Q.** And the fold EC50 shift of IL-2-induced pSTAT5a,b, Mouse Primary NK cells (muβγ) [8]?
**A.** Its fold EC50 shift of IL-2-induced pSTAT5a,b, Mouse Primary NK cells (muβγ) is 3 fold.

**Q.** What about the fold EC50 shift of IL-2-induced proliferation, BaF3/IL-2 HuRβγ [9] of the same molecule?
**A.** The fold EC50 shift of IL-2-induced proliferation, BaF3/IL-2 HuRβγ was 1.2 fold.

**Q.** And the fold EC50 shift of IL-2-induced proliferation, NK92 (huRαβγ) [9]?
**A.** Its fold EC50 shift of IL-2-induced proliferation, NK92 (huRαβγ) is 15 fold.

**Q.** What about the fold shift in EC50 of IL-2-induced phosphorylation of STAT5a,b, NK-92 cells, relative to isotype control [3] of the same molecule?
**A.** Its fold shift in EC50 of IL-2-induced phosphorylation of STAT5a,b, NK-92 cells, relative to isotype control is 1000 fold.

B1: XPA.92.019 (antibody, V domains shown)
VH: EVQLVESGGGLVQPGRSLRLSCAASGFTFSYYGMHWVRQAPGKGLEWVADISNDGSNKYYADSVKGRFTISRDNSKTTLYLQMNSLRPEDTAVYYCATPYYDSSGLDYWGQGTLVTVSS
VL: SYELTQPPSVSVSPGQTARITCSGDALPKRFAYWYQQKAGQAPVLVIYEDNKRPSGIPETLSGSSSGTTATLTISGAQEEDEADYYCYSTDNTGGLWVFGGGTKLTVLG
**Q.** How did the fold shift in EC50 of IL-2-induced CD69 on Tregs, IL-2 pre-complexed with 200 nM antibody [4] turn out when B1 was run?
**A.** Its fold shift in EC50 of IL-2-induced CD69 on Tregs, IL-2 pre-complexed with 200 nM antibody is 10 to 15 fold.

**Q.** And the fold EC50 shift of IL-2-induced pSTAT5a,b, Human Primary NK cells (huRβγ) [5]?
**A.** The fold EC50 shift of IL-2-induced pSTAT5a,b, Human Primary NK cells (huRβγ) was 40 fold.

**Q.** And the fold EC50 shift of IL-2-induced pSTAT5a,b, NK92 (huRαβγ) [5]?
**A.** The fold EC50 shift of IL-2-induced pSTAT5a,b, NK92 (huRαβγ) was 966 fold.

**Q.** What about the fold EC50 shift of IL-2-induced proliferation, CTLL-2 (muRαβγ) [7] of the same molecule?
**A.** The fold EC50 shift of IL-2-induced proliferation, CTLL-2 (muRαβγ) was 130 fold.

**Q.** What about the fold EC50 shift of IL-2-induced pSTAT5a,b, CTLL-2 (muRαβγ) [8] of the same molecule?
**A.** Its fold EC50 shift of IL-2-induced pSTAT5a,b, CTLL-2 (muRαβγ) is 523 fold.

**Q.** And the fold EC50 shift of IL-2-induced pSTAT5a,b, Mouse Primary NK cells (muβγ) [8]?
**A.** The fold EC50 shift of IL-2-induced pSTAT5a,b, Mouse Primary NK cells (muβγ) was 15 fold.

**Q.** And the fold EC50 shift of IL-2-induced proliferation, BaF3/IL-2 HuRβγ [9]?
**A.** Its fold EC50 shift of IL-2-induced proliferation, BaF3/IL-2 HuRβγ is 5.2 fold.

**Q.** And the fold EC50 shift of IL-2-induced proliferation, NK92 (huRαβγ) [9]?
**A.** The fold EC50 shift of IL-2-induced proliferation, NK92 (huRαβγ) was 33 fold.

**Q.** What about the Kd (rat IL-2) of the same molecule?
**A.** The Kd was greater than 1000 nM.

B2: XPA.92.099 (antibody, V domains shown)
VH: QVQLVESGGGLVKPGRSLRLSCAASGFTFNRYAMSWVRQAPGKGLEWVAMISFDGGNQYYTDSVSGRFTISRDNSKTTLFLQMDSLRTEDTAVYYCVRSPAGDWVAYFDYWGQGTLVTVSS
VL: DIQMTQSPSSLSASIGDRVTIPCQASEDISNHLSWYQQKPGKAPKPLIFDASDLETGVPSRFSGSGSGTDFALTISSLRPDDFATYYCHQYHDYPSYTFGHGTKLEIKR
**Q.** What does the source list for B2?
**A.** fold EC50 shift of IL-2-induced pSTAT5a,b, Human Primary NK cells (huRβγ) [5]: 24 fold; fold EC50 shift of IL-2-induced pSTAT5a,b, NK92 (huRαβγ) [5]: 495 fold; fold EC50 shift of IL-2-induced proliferation, CTLL-2 (muRαβγ) [7]: 54 fold; fold EC50 shift of IL-2-induced pSTAT5a,b, CTLL-2 (muRαβγ) [8]: 293 fold; fold EC50 shift of IL-2-induced pSTAT5a,b, Mouse Primary NK cells (muβγ) [8]: 17 fold; fold EC50 shift of IL-2-induced proliferation, BaF3/IL-2 HuRβγ [9]: 2.4 fold; fold EC50 shift of IL-2-induced proliferation, NK92 (huRαβγ) [9]: 22 fold

B3: XPA.92.042 (antibody, V domains shown)
VH: EVQLVQSGTEVKKAGDSLKISCKGSGYNFDTYWIGWVRQMPGRGLEWMGTIYPADSDTRYSPSFQGQVTMSADKSISTAYLQWGSLRASDTAMYYCARFSSSAYDIWGQGTMVTVSS
VL: SYELTQPPSVSVSPGQTARITCSGDALPRKFAYWYQQKSGQAPVLVIYQDTKRPSGIPERFSGSSSGTTVTLTISDVQAEDDADYYCQSADRSDSYVFGAGTKLTVLG
**Q.** Which fold EC50 shift of IL-2-induced pSTAT5a,b, Human Primary NK cells (huRβγ) [5] does the source give for B3 here?
**A.** Its fold EC50 shift of IL-2-induced pSTAT5a,b, Human Primary NK cells (huRβγ) is 41 fold.

**Q.** What about the fold EC50 shift of IL-2-induced pSTAT5a,b, NK92 (huRαβγ) [5] of the same molecule?
**A.** The fold EC50 shift of IL-2-induced pSTAT5a,b, NK92 (huRαβγ) was 1860 fold.

**Q.** And the fold EC50 shift of IL-2-induced proliferation, CTLL-2 (muRαβγ) [7]?
**A.** Its fold EC50 shift of IL-2-induced proliferation, CTLL-2 (muRαβγ) is 156 fold.

**Q.** And the fold EC50 shift of IL-2-induced pSTAT5a,b, CTLL-2 (muRαβγ) [8]?
**A.** The fold EC50 shift of IL-2-induced pSTAT5a,b, CTLL-2 (muRαβγ) was 793 fold.

**Q.** What about the fold EC50 shift of IL-2-induced pSTAT5a,b, Mouse Primary NK cells (muβγ) [8] of the same molecule?
**A.** The fold EC50 shift of IL-2-induced pSTAT5a,b, Mouse Primary NK cells (muβγ) was 14 fold.

**Q.** What about the fold EC50 shift of IL-2-induced proliferation, BaF3/IL-2 HuRβγ [9] of the same molecule?
**A.** Its fold EC50 shift of IL-2-induced proliferation, BaF3/IL-2 HuRβγ is 5 fold.

**Q.** What about the fold EC50 shift of IL-2-induced proliferation, NK92 (huRαβγ) [9] of the same molecule?
**A.** The fold EC50 shift of IL-2-induced proliferation, NK92 (huRαβγ) was 52 fold.
